Target: T1, recombinant human Strep-tagged CYPA (human, UniProt P62937 1-165)
T1 construct: Cyclophilin A (CYPA, PPIA), human; The methods also call such proteins Streptavidin-tagged; also called CYPA-Strep; source: E. coli BL21(DE3), purified (Strep-Tactin Superflow Plus cartridge, PD10 desalting)
Assay: pull-down; recombinant Strep-tagged CYPA and HIS-tagged FHA-BRCT1 combined, 30 min 4 °C; MagStrep type3 XT beads 1 h 4 °C in 100 mM Tris-Cl pH 8, 150 mM NaCl, 1 mM EDTA, 0.5 mg/ml BSA; elution with 50 mM biotin; western blot; beads alone as control
Settings: both partners purified

T1 sequence (P62937 whole entry): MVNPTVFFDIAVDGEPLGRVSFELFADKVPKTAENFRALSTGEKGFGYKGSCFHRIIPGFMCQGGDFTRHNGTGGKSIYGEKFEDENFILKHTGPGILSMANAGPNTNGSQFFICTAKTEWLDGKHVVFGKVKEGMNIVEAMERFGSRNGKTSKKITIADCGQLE

B1: recombinant HIS-tagged human NBS1 peptide composed of FHA-linker-BRCT1 (aa 1-182), wild type (domain or fragment, UniProt O60934 1-182, looked up)
chain: MWKLLPAAGPAGGEPYRLLTGVEYVVGRKNCAILIENDQSISRNHAVLTANFSVTNLSQTDEIPVLTLKDNSKYGTFVNEEKMQNGFSRTLKSGDGITFGVFGSKFRIEYEPLVACSSCLDVSGKTALNQAILQLGGFTVNNWTEECTHLVMVSVKVTIKTICALICGRPIVKPEYFTEFLK
notes: NBS1 (nibrin), human, UniProt O60934, FHA-linker-BRCT1, aa 1-182; also called WT HIS-tagged FHA-BRCT1; NBS1 FHA-BRCT1 peptide; source: E. coli BL21(DE3), purified (HiTrap TALON Crude, PD10 desalting)
B1: binds.
